What was measured:
[1] = substrate: CCCCC/C=C\C\C=C/C=C/C=C/[C@@H](SC[C@@H](NC(=O)CC[C@H](N)C(=O)O)C(=O)NCC(=O)O)[C@@H](O)CCCC(=O)O; assay: cells, lysate or membranes named
[2] = substrate: Cc1ccc(N(CC(=O)O)CC(=O)O)c(OCCOc2cc(-c3c4cc(Cl)c(=O)cc-4oc4cc(O)c(Cl)cc34)ccc2N(CC(=O)O)CC(=O)O)c1; assay: TP_TRANSPORTER: uptake in membrane vesicle from MRP1-expressing HeLa cells; assay type: functional, cell membranes

Row | Protein | Km [1] [µM] | Km [2] [µM]
1 | Multidrug resistance-associated protein 1 (Mus musculus) (protein) MALRSFCSADGSDPLWDWNVTWHTSNPDFTKCFQNTVLTWVPCFYLWSCFPLYFFYLSRHDRGYIQMTHLNKTKTALGFFLWIICWADLFYSFWERSQGVLRAPVLLVSPTLLGITMLLATFLIQLERRKGVQSSGIMLTFWLVALLCALAILRSKIISALKKDAHVDVFRDSTFYLYFTLVLVQLVLSCFSDCSPLFSETVHDRNPCPESSASFLSRITFWWITGMMVHGYRQPLESSDLWSLNKEDTSEEVVPVLVNNWKKECDKSRKQPVRIVYAPPKDPSKPKGSSQLDVNEEVEALIVKSPHKDREPSLFKVLYKTFGPYFLMSFLYKALHDLMMFAGPKILELIINFVNDREAPDWQGYFYTALLFVSACLQTLALHQYFHICFVSGMRIKTAVVGAVYRKALLITNAARKSSTVGEIVNLMSVDAQRFMDLATYINMIWSAPLQVILALYFLWLSLGPSVLAGVAVMILMVPLNAVMAMKTKTYQVAHMKSKDNRIKLMNEILNGIKVLKLYAWELAFQDKVMSIRQEELKVLKKSAYLAAVGTFTWVCTPFLVALSTFAVFVTVDERNILDAKKAFVSLALFNILRFPLNILPMVISSIVQASVSLKRLRIFLSHEELEPDSIERRSIKSGEGNSITVKNATFTWARGEPPTLNGITFSIPEGALVAVVGQVGCGKSSLLSALLAEMDKVEGHVTLKGSVAYVPQQAWIQNDSLRENILFGHPLQENYYKAVMEACALLPDLEILPSGDRTEIGEKGVNLSGGQKQRVSLARAVYSNSDIYLFDDPLSAVDAHVGKHIFEKVVGPMGLLKNKTRILVTHGISYLPQVDVIIVMSGGKISEMGSYQELLDRDGAFAEFLRTYANAEQDLASEDDSVSGSGKESKPVENGMLVTDTVGKHLQRHLSNSSSHSGDTSQQHSSIAELQKAGAKEETWKLMEADKAQTGQVQLSVYWNYMKAIGLFITFLSIFLFLCNHVSALASNYWLSLWTDDPPVVNGTQANRNFRLSVYGALGILQGAAIFGYSMAVSIGGIFASRRLHLDLLYNVLRSPMSFFERTPSGNLVNRFSKELDTVDSMIPQVIKMFMGSLFSVIGAVIIILLATPIAAVIIPPLGLVYFFVQRFYVASSRQLKRLESVSRSPVYSHFNETLLGVSVIRAFEEQERFIHQSDLKVDENQKAYYPSIVANRWLAVRLECVGNCIVLFAALFAVISRHSLSAGLVGLSVSYSLQITAYLNWLVRMSSEMETNIVAVERLKEYSETEKEAPWQIQETAPPSTWPHSGRVEFRDYCLRYREDLDLVLKHINVTIEGGEKVGIVGRTGAGKSSLTLGLFRINESAEGEIIIDGVNIAKIGLHNLRFKITIIPQDPVLFSGSLRMNLDPFSQYSDEEVWMALELAHLKGFVSALPDKLNHECAEGGENLSVGQRQLVCLARALLRKTKILVLDEATAAVDLETDNLIQSTIRTQFEDCTVLTIAHRLNTIMDYTRVIVLDKGEVRECGAPSELLQQRGIFYSMAKDAGLV | 0.1 | 
2 | Multidrug resistance-associated protein 1 (Homo sapiens) (protein) MALRGFCSADGSDPLWDWNVTWNTSNPDFTKCFQNTVLVWVPCFYLWACFPFYFLYLSRHDRGYIQMTPLNKTKTALGFLLWIVCWADLFYSFWERSRGIFLAPVFLVSPTLLGITMLLATFLIQLERRKGVQSSGIMLTFWLVALVCALAILRSKIMTALKEDAQVDLFRDITFYVYFSLLLIQLVLSCFSDRSPLFSETIHDPNPCPESSASFLSRITFWWITGLIVRGYRQPLEGSDLWSLNKEDTSEQVVPVLVKNWKKECAKTRKQPVKVVYSSKDPAQPKESSKVDANEEVEALIVKSPQKEWNPSLFKVLYKTFGPYFLMSFFFKAIHDLMMFSGPQILKLLIKFVNDTKAPDWQGYFYTVLLFVTACLQTLVLHQYFHICFVSGMRIKTAVIGAVYRKALVITNSARKSSTVGEIVNLMSVDAQRFMDLATYINMIWSAPLQVILALYLLWLNLGPSVLAGVAVMVLMVPVNAVMAMKTKTYQVAHMKSKDNRIKLMNEILNGIKVLKLYAWELAFKDKVLAIRQEELKVLKKSAYLSAVGTFTWVCTPFLVALCTFAVYVTIDENNILDAQTAFVSLALFNILRFPLNILPMVISSIVQASVSLKRLRIFLSHEELEPDSIERRPVKDGGGTNSITVRNATFTWARSDPPTLNGITFSIPEGALVAVVGQVGCGKSSLLSALLAEMDKVEGHVAIKGSVAYVPQQAWIQNDSLRENILFGCQLEEPYYRSVIQACALLPDLEILPSGDRTEIGEKGVNLSGGQKQRVSLARAVYSNADIYLFDDPLSAVDAHVGKHIFENVIGPKGMLKNKTRILVTHSMSYLPQVDVIIVMSGGKISEMGSYQELLARDGAFAEFLRTYASTEQEQDAEENGVTGVSGPGKEAKQMENGMLVTDSAGKQLQRQLSSSSSYSGDISRHHNSTAELQKAEAKKEETWKLMEADKAQTGQVKLSVYWDYMKAIGLFISFLSIFLFMCNHVSALASNYWLSLWTDDPIVNGTQEHTKVRLSVYGALGISQGIAVFGYSMAVSIGGILASRCLHVDLLHSILRSPMSFFERTPSGNLVNRFSKELDTVDSMIPEVIKMFMGSLFNVIGACIVILLATPIAAIIIPPLGLIYFFVQRFYVASSRQLKRLESVSRSPVYSHFNETLLGVSVIRAFEEQERFIHQSDLKVDENQKAYYPSIVANRWLAVRLECVGNCIVLFAALFAVISRHSLSAGLVGLSVSYSLQVTTYLNWLVRMSSEMETNIVAVERLKEYSETEKEAPWQIQETAPPSSWPQVGRVEFRNYCLRYREDLDFVLRHINVTINGGEKVGIVGRTGAGKSSLTLGLFRINESAEGEIIIDGINIAKIGLHDLRFKITIIPQDPVLFSGSLRMNLDPFSQYSDEEVWTSLELAHLKDFVSALPDKLDHECAEGGENLSVGQRQLVCLARALLRKTKILVLDEATAAVDLETDDLIQSTIRTQFEDCTVLTIAHRLNTIMDYTRVIVLDKGEIQEYGAPSDLLQQRGLFYSMAKDAGLV |  | 12
